Source: publication doi:10.1101/2023.12.27.573415 (bioRxiv, 2023)

T1: FKBP51 (UniProt Q13451 1-457)
T1 sequence: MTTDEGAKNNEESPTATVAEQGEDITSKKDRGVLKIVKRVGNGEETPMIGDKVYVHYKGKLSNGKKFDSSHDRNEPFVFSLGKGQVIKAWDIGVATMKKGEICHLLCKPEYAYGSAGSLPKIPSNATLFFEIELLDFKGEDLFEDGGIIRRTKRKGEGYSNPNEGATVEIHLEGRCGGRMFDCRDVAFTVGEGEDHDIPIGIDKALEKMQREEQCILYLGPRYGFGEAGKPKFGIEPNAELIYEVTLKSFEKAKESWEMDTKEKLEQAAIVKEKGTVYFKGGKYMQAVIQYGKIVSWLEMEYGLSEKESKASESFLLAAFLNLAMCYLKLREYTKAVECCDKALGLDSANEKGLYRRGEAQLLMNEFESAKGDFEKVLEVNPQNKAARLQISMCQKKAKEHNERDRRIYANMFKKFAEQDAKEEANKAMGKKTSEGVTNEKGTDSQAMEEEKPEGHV


Experiments:
FKBP51 = target: T1, FKBP51; assay: NMR titration
[1] = target: 441-residue human 2N4R tau (human, UniProt P10636-8 1-441); assay: NMR titration

Binder | binding result (FKBP51) | binding result [1]
truncated p23 (1-119) (domain or fragment) MQPASAKWYDRRDYVFIEFCVEDSKDVNVNFEKSKLTFSCLGGSDNFKHLNEIDLFHCIDPNDSKHKRTDRSILCCLRKGESGQSWPRLTKERAKLNWLSVDFNNWKDWEDDSDEDMSN | binds | –
p23 (human, wild type) (natural protein) MQPASAKWYDRRDYVFIEFCVEDSKDVNVNFEKSKLTFSCLGGSDNFKHLNEIDLFHCIDPNDSKHKRTDRSILCCLRKGESGQSWPRLTKERAKLNWLSVDFNNWKDWEDDSDEDMSNFDRFSEMMNNMGGDEDVDLPEVDGADDDSQDSDDEKMPDLE | – | binds
